Molecular target: MtrR-MBP (Neisseria gonorrhoeae) (UniProt P39897)
Assay: competition EMSA
Settings: 30 ul reaction buffer (composition not stated), room temperature; 6% native PAGE at 4 C; 2 ug MtrR-MBP or 1 ug GdhR-His

Sequence of MtrR-MBP (Neisseria gonorrhoeae) (P39897 whole entry): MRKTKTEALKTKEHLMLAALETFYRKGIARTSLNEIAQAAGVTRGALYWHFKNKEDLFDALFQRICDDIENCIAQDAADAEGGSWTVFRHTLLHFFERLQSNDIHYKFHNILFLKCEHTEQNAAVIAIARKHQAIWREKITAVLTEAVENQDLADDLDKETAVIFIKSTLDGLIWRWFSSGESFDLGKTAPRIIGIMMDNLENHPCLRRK

Row | Sequence | binding
1 | CCGTTCCCGCCGTCAACGGCACTTACCTCGCACCGCCCCCGAAACACAGGAAAAAACTACACCAAACTACAATTTTTGTTCATGCAAATATTTGTTTTAACGGGATTTAAATGAAAGCTCCGATTCAAATCTGCCGAACCGCCCAAAAATATATTGACCTGAATATTAAAGTTTCGTAAAGTAATGCAACGTTGCTTTAATTGGTTTGACCACTATTGCCGACGATTAGAAAAATATTTTCGGAGATGTTCAATTATGGAAACTTGGGTTCAAAACTACACGGCAATCGGCG (double strand) [R3/R5 (upstream of gdhR promoter)] | no binding
2 | TGCCGTTGACGGCGGGAACGGCGTGTCATTAGAATCCGCCCTGATTGGCCAGTCCAATTTGATGTTTGATGTATTTCGGAAGGGTTCTGCAGGGAATCTTTATAAAGGAGGAGTGATGAAAC (double strand) [R4/R2 (gdhR promoter and downstream)] | binds

— PMC5388806
